Measurements taken from patent US5661005, “β3 integrin subunit specific polypeptides, cDNAS which encode these polypeptides and methods of producing these polypeptides” (Trustees of the University of Pennsylvania, dated 1997).
One block for each binder: values may come before it.

How the values were obtained:
[1] = target: T1, integrin β1 cytoplasmic domain (Homo sapiens (Human), UniProt P05556); assay: yeast two-hybrid, quantitative β-galactosidase assay
T1 chain: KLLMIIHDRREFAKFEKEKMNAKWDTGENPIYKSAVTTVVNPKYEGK

[2] = target: T2, integrin β2 cytoplasmic domain (Homo sapiens (Human), UniProt P05107); assay: as above
T2 chain: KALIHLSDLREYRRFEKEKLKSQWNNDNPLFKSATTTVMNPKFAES

[3] = target: β3 cytoplasmic tail with mutation of a serine to a proline at amino acid residue 752 (Saccharomyces cerevisiae (strain ATCC 204508 / S288c) (Baker's yeast); Homo sapiens (Human)) (UniProt P04386); assay: yeast two-hybrid, quantitative β-galactosidase assay of yeast lysates

binding result [1]: no binding
binding result [2]: no binding
B1: β3 integrin subunit specific polypeptide comprising about 111 amino acids (SEQ ID NO: 4) (other)
chain: MPVKRSLKLDGLLEENSFDPSKITRKKSVITYSPTTGTCQMSLFASPTSSEEQKHRNGLSNEKRKKLNHPSLTESKESTTKDNDEFMMLLSKVEKLSEEIMEIMQNLSSIQ

binding result [1]: no binding
binding result [2]: no binding
reduction in the interaction (against the unmutated β3 cytoplasmic tail) [3]: 70%
B2: polypeptide encoded by clone 28 (SEQ ID NO: 2), β3 integrin subunit specific polypeptide (other)
chain: GHEGPKITRKKSVITYSPTTGTCQMSLFASPTSSEEQKHRNGLSNEKRKKLNHPSLTESKESTTKDNDEFMMLLSKVEKLSEEIMEIMQNLSSIQ
